For 1 substance, Kd results are on record in publication PMC3545708.

In this test the target is isolated HC fragment of BoNT/A (receptor-binding domain), wild type (Clostridium botulinum). Kind of test: ITC. (In general: In ITC the heat of successive injections is recorded.)

In general, Kd refers to a measure of binding affinity in units of concentration. Lower therefore signals a tighter complex. “full-length NTNHA-A1 (non-toxic non-hemagglutinin protein) (from UniProt Q45914 1-1193) (natural protein)”: the Kd was 0.0483 µM.
